The record followed here is patent publication WO2021228904A1 (dated 2021).

Broadly, the Kd is the constant that tells how readily two partners part at equilibrium. The low end stands for higher affinity, the high end for lower affinity.

The target of test [1] is T1, stabilized prefusion SARS-CoV-2 S ectodomain (SARS-CoV-2 (Wuhan-Hu-1), UniProt P0DTC2 15-1138). Description: SPR. In general terms: SPR reads the build-up and loss of mass on a sensor chip optically.
The target of test [2] is T1, stabilized prefusion SARS-CoV-2 S …. Description: not named there; ELISA in Example 4. Background: An ELISA detects its analyte on a solid surface through an enzyme-linked reagent.

B1: SEQ ID NOs: 445/449 (HCVR/LCVR) (antibody, V domains shown)
VH: EVQLVESGPGLVKPSQTLSLTCTVSGGSISSGDYYWSWIRQPPGKGLEWIGYIYYSGSTYYNPSLKSRVTISVDTSKNQFSLKLSSVTAADTAVYYCARGVEDPVVPAAIPWCWFDPWGQGTRVTVSS
VL: QSVLTQPPSVSVAPGQTARITCGGNNIGSKSVHWYQQKPGQAPVLVVYDDSDRPSGIPERFSGSNSGNTATLTISRVEAGDEADYYCQVWASSSVVFGGGTKLTVL
Consider B1, for which the Kd in test [1] was not above 1 nM.

B2: SEQ ID NOs: 509/513 (HCVR/LCVR) (antibody, V domains shown)
VH: QVQLQQSGPGLVKPSETLPLTCTVSGGSISSSSYYWGWIRQPPGKGLEWIGSVFYSGSTYYNPSLKSRVTISVDTSKNQLSLKLSSVTAADTAVYYCARQVRQWLEDDAFDIWGQGTMVTVSS
VL: DIQLTQSPSSLSASVGDRVTITCRASQGIRNDLGWYQQKPGKAPKRLIYAASSLQSGVPSRFSGSGSGTEFTLTISSLQPEDFATYYCLQHNSYPLTFGGGTKVDIK
On to B2, for which, in test [2], the binding result is listed as “binds”.

B3: SEQ ID NOs: 549/553 (HCVR/LCVR) (antibody, V domains shown)
VH: QVQLVQPGAEVKKPGASVKVSCKASGYTFTSYGISWVRQAPGQGLEWMGWISAYNGDTNYAQKLQGRVTMTTDTSTSTAYMELRSLKSDDTAVYYCARFDYGYPYSSWSVLSIDYWGQGTLVTVSS
VL: DIVMTQSPSSLSASVGDRVTITCRASQGIRNDLGWYQQKPGKAPKRLIYAASSLQSGVPSRFSGSGSGTEFTLTISSLQPEDFATYYCLQHNSYPLTFGGGTKLEIK
Take B3: the binding result in test [2] is on record as “binds”.

B4: SEQ ID NOs: 337/341 (HCVR/LCVR) (antibody, V domains shown)
VH: QVQLVQSGAEVKKPGATVKISCKVSGYTFTDYYMHWVQQAPGKGLEWMGLVDPEDGETIYAEKFQGRVTITADTSTDTAYMELSSLRSEDTAVYYCASSDSSGFVGSRGFDYWGQGTRVTVSS
VL: DIQLTQSPSSLSASVGDRVTITCRASQGIRNDLGWYQQKPGKAPKRLIYAASSLQSGVPSRFSGSGSGTEFTLTISSLQPEDFATYYCLQHNSYPPLFGQGTKVEIK
As to B4, in test [1], the Kd is not above 1 nM.

B5: SEQ ID NOs: 533/537 (HCVR/LCVR) (antibody, V domains shown)
VH: EVQLVESGGGLVKPGGSLRLSCSASGFTFSNYNMDWVRQAPGKGLEWVSSISSSSSYIYLADSVKGRFTISRDNAKNSLYLQMNSLRAEDTAVYYCARVQKDIVVVPVALADYYYYGMDVWGQGTTVTVSS
VL: DIVMTQSPATLSVSPGERATLSCRASQSVSSNLAWYQQKPGQAPRLLIYGASTRATGIPARFSGSGSGTEFTLTISSLQPEDFAVYYCQQCYNWPPWTFGQGTRVEFK
The molecule B5 showed a Kd in test [1] not above 1 nM.

B6: SEQ ID NOs: 405/409 (HCVR/LCVR) (antibody, V domains shown)
VH: EVQLVESGAEVKKPGASVKVSCKVSGYTLPELSMHWVRQTPGKGLEWMGGFDPEDGETIYAQKFQGRVTMTEDTSTDTAYMELSSLRSEDTAVYYCATGPTIAAAATNWFDPGGQGTLVTVSS
VL: QPVLTQPASVSGSPGQSITISCTGTSSDVGGYNYVSWYQQHPGKAPKLMIYDVSNRPSGVSNRFSGSRSGDTASLTISGLQAEDEADYYCSSYTSSSTWVFGGGTKLTVL
Take B6: the Kd in test [1] is not above 1 nM.

B7: COVA2-07 (antibody, V domains shown)
VH: EVQLVETGGGLIQPGGSLRLSCAASGLTVSSNYMNWVRQAPGKGLEWVSVIYSGGSTYYADSVKGRFTISRDNSKNTLYLQMNSLRAEDTAVYYCAREAYGMDVWGQGTMVTVSS
VL: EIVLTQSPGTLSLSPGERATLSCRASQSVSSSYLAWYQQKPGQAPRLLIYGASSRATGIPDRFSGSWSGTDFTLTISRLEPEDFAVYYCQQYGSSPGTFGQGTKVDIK
Molecule B7 yielded a dissociation constant Kd in test [1] not above 1 nM.

B8: SEQ ID NOs: 305/309 (HCVR/LCVR) (antibody, V domains shown)
VH: EVQLVESGGGLVKPGGSLRLSCAASGFTFGSYSMSWVRQAPGKGLEWVSSISRSSSYIYNADSVRGRLTISRDNAKNSLYLQMNSLRVEDTAVYYCARDQPLPDILTGYYTGPLDYWGQGTLVTVSS
VL: not shown
As to B8, the binding result in test [2] is on record as “binds”.

B9: SEQ ID NOs: 581/585 (HCVR/LCVR) (antibody, V domains shown)
VH: EVQLVESGGGLVQPGRSLRLSCAASGFTFDDYAMHWVRQAPGKGLEWVSGISWNSGSIGYADSVKGRFTISRDSAKNSLYLQMNSLRAEDTALYYCAKVATYYYDRSGYYYGGALDYWGQGTLVTVSS
VL: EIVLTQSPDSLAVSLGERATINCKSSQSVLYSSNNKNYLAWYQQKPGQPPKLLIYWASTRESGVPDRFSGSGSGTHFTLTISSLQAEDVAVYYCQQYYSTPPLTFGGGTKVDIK
In the case of B9, in test [2], the binding result is on record as “binds”.

B10: SEQ ID NOs: 565/569 (HCVR/LCVR) (antibody, V domains shown)
VH: EVQLLESGAEVKKPGASVKISCKASGYTFTGYYMHWVRQAPGQGLEWMGWINPNSGGTNYAQKFQGRVTMTRDTSISTAYMELSRLRSDDTAVYYCARGDGDYYDSSGYYRPTLYNWLDPWGQGTRVTVSS
VL: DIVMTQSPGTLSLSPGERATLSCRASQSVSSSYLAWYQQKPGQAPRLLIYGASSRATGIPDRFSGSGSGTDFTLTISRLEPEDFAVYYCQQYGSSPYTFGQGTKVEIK
In the case of B10, in test [1], the Kd was not above 1 nM.

B11: COVA1-22 (antibody, V domains shown)
VH: EVQLVESGAEVKKPGASVKVSCKASGYTFTSYGISWVRQAPGQGLEWMGWISAYNGYTNSAQKLQGRVTMTTDTSTSTAYMELRSLRSDDTAVYYCARDLVDTAMVQTLDDYGMDVWGQGTMVTVSS
VL: not shown
In the case of B11, the Kd in test [1] was not above 1 nM.

B12: SEQ ID NOs: 629/633 (HCVR/LCVR) (antibody, V domains shown)
VH: QVQLVESRAEVKKPGSSVKVSCKASGGTFSSYAISWVRQAPGQGLEWMGRIIPILGITNYAQKFQGRVTITADKSTSTAYMELSSLRSEDTAVYYCARDAPDYYDSSGPTYFDYWGQGTLVTVSS
VL: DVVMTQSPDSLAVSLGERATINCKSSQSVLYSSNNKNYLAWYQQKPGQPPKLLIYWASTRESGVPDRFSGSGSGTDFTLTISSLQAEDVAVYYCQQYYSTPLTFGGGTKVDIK
In test [1], B12 had a Kd not above 1 nM.

B13: SEQ ID NOs: 49/53 (HCVR/LCVR) (antibody, V domains shown)
VH: QVQLVESGAEVKKPGSSVKVSCKASGGTLSSYAITWVRQAPGQGLEWVGGIIPIFGTANYAQKFQGRVTITADESTSTAYMELSSLRSEDTAVYYCARVGAYDSSGYSNDYWGQGTLVTVSS
VL: DIQLTQSPATLSLSPGERATLSCRASQSVSSYLAWYQQKPGQAPRLLIYDASNRATGIPARFSGSGSGTDFTLTISSLEPEDFAVYYCQQRSNWPPRVTFGGGTKVEIK
As to B13, the Kd in test [1] is not above 1 nM.

B14: SEQ ID NOs: 201/205 (HCVR/LCVR) (antibody, V domains shown)
VH: QLQLQESGPGLVKPSQTLSLTCTVSGGSISSGGYYWSWIRQLPGKGLEWIGYIYYSGSTYYNPSLKSRVTISVDTSKNQFSLNLSSVTAADTAVYYCARQQLDYYDSSGCFDYWGQGTLVTVSS
VL: DIVMTQSPSFLSASVGDRVTITCRASQGISSYLAWYQQKPGKAPKLLIYAASTLQSGVPSRFSGSGSGTEFTLTISSLQPEDFATYYCQQLHSYPLTFGGGTKVDIK
The molecule B14 came in with a Kd in test [1] not above 1 nM.

B15: SEQ ID NOs: 453/457 (HCVR/LCVR) (antibody, V domains shown)
VH: EVQLVESGVEVKKPGASVKVSCKAFGYTFTGQDMHWVRQAPGQGLEWMGWINPSSAGTNYAQKFQGRVTMTRDTSISTAYMELSRLRSDDTSVYYCRKMLTIFGKVNQTMLLISGAKGQWSPSLQWGQGTMVTVSS
VL: DIVMTQTPLSLSVTPGQPASISCKSGQSLLHSDGKTYLYWYLQKPGQPPQLLIYEVSNRFSGVPDRFSGSGSGTDFTLKISRVEAEDVGVYYCMQSIQLPPTFGQGTKVEIK
In test [1], B15 yielded a Kd not above 1 nM.

B16: SEQ ID NOs: 429/433 (HCVR/LCVR) (antibody, V domains shown)
VH: EVQLVESGGGVVQPGRSLRLSCAASGFTFSSYGMHWVRQAPGKGLEWVAVIWYDGSNKYYADSVKGRFTISRDNSKNTLYLQMDSLRAEDTAMYYCAKDKAPPCSSGWYYFDYWGQGTLVTVSS
VL: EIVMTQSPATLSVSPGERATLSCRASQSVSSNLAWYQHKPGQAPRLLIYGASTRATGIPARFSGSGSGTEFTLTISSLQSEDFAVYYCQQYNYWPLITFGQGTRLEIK
B16 yielded a Kd in test [1] not above 1 nM.

B17: 002_P2C4 (antibody, V domains shown)
VH: QVQLVESGAEVKKPGSSVKVSCKASGGTFSSYGINWVRQAPGQGLEWMGGIIPIFGTANYAQKFQGRVTITTDESTSTAYMELSSLRSEDTAVYYCASFGDDSGDEGVRWGQGTLVTVSS
VL: EIVMTQSPATLSLSPGERATLSCRASQSVSSYLAWYQQKPGQAPRLLIYDASNRATGIPARFSGSGSGTDFTLTISSLEPEDFAVYYCQQRSNWPPYTFGQGTKVEIK
On to B17, for which the binding result in test [2] was “binds”.

B18: SEQ ID NOs: 153/157 (HCVR/LCVR) (antibody, V domains shown)
VH: QVQLVESGGGLVKPGGSLRLSCAASGFTFSSYSMNWVRQAPGKGLEWVSSISSSSSYIYYADSVKGRFTISRDDAKNSLFLQMNSLRAEDTAVYYCAGDQNLYCSGDSCYYHYYGMDVWGQGTVVTVSS
VL: NFMLTQPPSVSVAPGKTARITCGGNNIGSKSVHWYQQKPGQAPVLVIYYDSDRPSGIPERFSGSNSGNTATLTISRVEAGDEADYYCQVWDSSSDHWVFGGGTKLTVL
The molecule B18 had a Kd in test [1] not above 1 nM.

B19: SEQ ID NOs: 525/529 (HCVR/LCVR) (antibody, V domains shown)
VH: QVQLQESGPGLVKPSGTLSLTCAVSGGSISSSNWWSWVRQPPGKGLEWIGEIYHSGSSNYNPSLKSRVTISVDKSKNQFSLKLNSVTAADTAVYYCAGRYCSGGRCGWFDPWGQGTLVTVSS
VL: QSVLTQPASVSGSPGQSITISCTGTSSDVGSYNLVSWYQQHPGKAPKLMIYEASKRPSGISNRFSGSKSGNTASLTISGLQAEDEADYYCCSYAGSSTWVFGGGTKPTVL
For B19, the binding result in test [2] is given as “binds”.

B20: SEQ ID NOs: 477/481 (HCVR/LCVR) (antibody, V domains shown)
VH: QVQLVESGGGVVQPGRSLRLSCAASGFTFSSYAMHWVRQAPGKGLEWVAVISYDGSNKYYADSVKGRFTISRDNSKNTLYLQMNSLRAEDTAVYYCARSASGSYYGAFDYWGQGTLVTVSS
VL: QTVVTQPASVSGSPGQSITISCTGTSSDVGGYNYVSWYQQHPGKAPKLMIYDVSNRPSGVSNRFSGSKSGNTASLTISGLQAEDEADYYCSSYTSSSTLGLYVFGTGTKVTVL
On to B20, for which the binding result in test [2] is “binds”.

B21: SEQ ID NOs: 573/577 (HCVR/LCVR) (antibody, V domains shown)
VH: QVQLQESGPGLVKPSETLSLTCTASGGSISSSSYYWGWIRQPPGKGLEWIGSIYYSGSTYYNPSLKSRVTISVDTSKNQFSLKLSSVTAADTAVYYCARHPSGLYQLLNWGQGTLVTVSS
VL: AIRMTQSPSSLSASVGDRVTITCQASQDISNYLNWYQQKPGKAPKLLIYDASNLETGVPSRFSGSGSGTDFTFTISSLQPEDIATYYCQQYDNLLSLTFGGGTKVEIK
In test [1], B21 registered a Kd not above 1 nM.

B22: SEQ ID NOs: 213/209 (HCVR/LCVR) (antibody, V domains shown)
VH: EVQLVESGPGLVKPSETLSLTCTVSGGSISSYYWSWIRQPPGKRLEWIGYIYYSGSTNYNPSLKSRVTISVDTSKNQFSLKLNSVTAADTAAYYCARGFDYWGQGTRVTVSS
VL: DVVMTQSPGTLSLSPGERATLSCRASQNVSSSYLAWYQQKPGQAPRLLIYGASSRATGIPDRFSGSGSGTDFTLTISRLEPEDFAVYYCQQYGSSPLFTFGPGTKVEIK
For B22, the Kd in test [1] was not above 1 nM.

B23: 002_P1H10 (antibody, V domains shown)
VH: QVQLVETGGGLIQPGGSLRLSCAASGFTVSSNYMSWVRQAPGKGLEWVSVIYSGGSTYYADSVKGRFTISRDNSKNTLYLQMNSLRAEDTAVYYCARDLDTMGGMDVWGQGTRVTVSS
VL: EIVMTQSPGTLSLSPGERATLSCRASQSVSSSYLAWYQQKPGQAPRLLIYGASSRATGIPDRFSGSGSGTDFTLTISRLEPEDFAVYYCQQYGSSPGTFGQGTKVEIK
B23: in test [1], the equilibrium dissociation constant (Kd) was not above 1 nM.

B24: SEQ ID NOs: 397/401 (HCVR/LCVR) (antibody, V domains shown)
VH: EVQLVQSGAEVKKPGESLRISCKGSGYSFTSYWISWVRQMPGKGLEWMGRIDPSDSYTNYSPSFQGHVTISADKSISTAYLQWSSLKASDTAMYYCARPNPAGGYDSSGWVDAFDIWGQGTRVTVSS
VL: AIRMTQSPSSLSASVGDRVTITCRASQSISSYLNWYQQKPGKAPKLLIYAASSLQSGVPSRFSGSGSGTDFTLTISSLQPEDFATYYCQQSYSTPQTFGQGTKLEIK
B24 returned a Kd in test [1] not above 1 nM.
